For assay [1], the target named is T1, BMPR-1A (aortic SMC, BMPR-1B siRNA) (Mus musculus, UniProt P36895).
T1 chain: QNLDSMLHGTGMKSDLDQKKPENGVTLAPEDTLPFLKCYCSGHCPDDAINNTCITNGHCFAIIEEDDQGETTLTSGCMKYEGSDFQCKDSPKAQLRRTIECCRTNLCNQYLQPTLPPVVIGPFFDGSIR
The assay can be described thus: FITC-ligand cell membrane binding, Scatchard.

The target in assay [2] is T2, BMPR-1B (aortic SMC, BMPR-1A siRNA) (Mus musculus, UniProt P36898).
T2 chain: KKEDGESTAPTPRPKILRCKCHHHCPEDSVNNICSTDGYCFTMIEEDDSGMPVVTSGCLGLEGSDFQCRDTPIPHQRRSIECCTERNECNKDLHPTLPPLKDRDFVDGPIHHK
The assay can be described thus: FITC-ligand cell membrane binding, Scatchard.

Assay [3] concerns the target T3, BMPR-1A/BMPR-1B (aortic SMC) (Mus musculus, UniProt P36895).
T3 chain 1: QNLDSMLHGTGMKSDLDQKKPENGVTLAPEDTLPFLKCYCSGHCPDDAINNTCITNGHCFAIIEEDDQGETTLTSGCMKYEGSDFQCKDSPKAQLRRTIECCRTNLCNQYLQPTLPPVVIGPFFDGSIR
T3 chain 2: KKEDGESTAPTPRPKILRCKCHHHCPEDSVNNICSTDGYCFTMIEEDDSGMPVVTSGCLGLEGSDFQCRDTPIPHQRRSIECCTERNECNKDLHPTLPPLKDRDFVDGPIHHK
The assay can be described thus: FITC-ligand cell membrane binding, Scatchard.

Assay [4] deals with T4, BMPR-2 (Mus musculus, UniProt O35607).
T4 chain: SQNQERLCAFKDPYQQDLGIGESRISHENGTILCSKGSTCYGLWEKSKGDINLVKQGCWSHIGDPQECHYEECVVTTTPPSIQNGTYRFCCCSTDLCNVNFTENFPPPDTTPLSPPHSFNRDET
Description: FITC-ligand binding to transfected 293T, Scatchard.

For assay [5], the target named is T5, BMPR-1A/BMPR-1B (Mus musculus, UniProt P36895).
T5 chain 1: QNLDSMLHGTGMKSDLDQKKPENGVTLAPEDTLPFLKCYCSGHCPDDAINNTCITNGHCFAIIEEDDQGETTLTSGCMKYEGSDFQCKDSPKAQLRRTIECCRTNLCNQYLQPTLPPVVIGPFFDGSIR
T5 chain 2: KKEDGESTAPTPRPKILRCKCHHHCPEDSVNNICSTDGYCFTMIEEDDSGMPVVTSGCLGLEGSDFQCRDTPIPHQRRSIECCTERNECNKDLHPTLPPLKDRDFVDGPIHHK
Description: FITC-ligand binding to transfected 293T, Scatchard.

The target of assay [6] is T6, BMPR-1A (Mus musculus, UniProt P36895).
T6 chain: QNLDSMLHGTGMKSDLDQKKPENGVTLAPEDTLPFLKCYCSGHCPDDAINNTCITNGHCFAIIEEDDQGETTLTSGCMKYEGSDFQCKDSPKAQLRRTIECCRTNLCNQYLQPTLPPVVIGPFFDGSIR
The assay can be described thus: FITC-ligand binding to transfected 293T, Scatchard.

The target in assay [7] is T7, BMPR-1B (Mus musculus, UniProt P36898).
T7 chain: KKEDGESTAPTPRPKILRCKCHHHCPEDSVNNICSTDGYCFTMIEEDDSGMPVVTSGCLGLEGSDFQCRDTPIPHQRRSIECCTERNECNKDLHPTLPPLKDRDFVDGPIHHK
The assay can be described thus: FITC-ligand binding to transfected 293T, Scatchard.

Assay [8] deals with T8, BMPR-1A/BMPR-1B (aortic SMC) (Homo sapiens, UniProt P36894).
T8 chain 1: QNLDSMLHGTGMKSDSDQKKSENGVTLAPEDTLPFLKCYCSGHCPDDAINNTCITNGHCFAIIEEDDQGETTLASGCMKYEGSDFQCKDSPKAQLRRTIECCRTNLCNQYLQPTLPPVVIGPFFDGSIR
T8 chain 2: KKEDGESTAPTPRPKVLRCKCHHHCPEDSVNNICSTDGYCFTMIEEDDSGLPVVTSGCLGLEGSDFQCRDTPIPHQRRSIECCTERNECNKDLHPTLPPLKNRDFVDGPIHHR
Description: FITC-ligand cell membrane binding, Scatchard.

B1: mEar1 (protein)
chain: LGQTPSQKFAIQHINNNTNLQCNVEMMRINRARRTCKGLNTFLHTSFANAVGVCGNPSGLCSDKRSQNCHNSSSRVHITVCNITSRATNYTQCRYQSRRSLEYYTVACDPRTPQDSPMYPVVPVHLDGTF
Broadly, the Kd is the concentration at which binding is half-saturated. For the molecule B1, the Kd in assay [1] was found to be 9.14 nM; in assay [2], 11.1 nM; in assay [3] it was 15.8 nM; in assay [4], 6.09 nM; in assay [5], 15.5 nM; in assay [6], 10.6 nM. The molecule also displayed a Kd in assay [7] of 9.45 nM.

B2: EDN (protein)
chain: KPPQFTWAQWFETQHINMTSQQCTNAMQVINNYQRRCKNQNTFLLTTFANVVNVCGNPNMTCPSNKTRKNCHHSGSQVPLIHCNLTTPSPQNISNCRYAQTPANMFYIVACDNRDQRRDPPQYPVVPVHLDRII
In assay [8], B2 had a Kd of 11.6 nM.

B3: ECP (protein)
chain: RPPQFTRAQWFAIQHISLNPPRCTIAMRAINNYRWRCKNQNTFLRTTFANVVNVCGNQSIRCPHNRTLNNCHRSRFRVPLLHCDLINPGAQNISNCTYADRPGRRFYVVACDNRDPRDSPRYPVVPVHLDTTI
As for B3, in assay [8], the affinity, expressed as Kd, was 14.9 nM.

For the origin of these results see publication PMC10393071 (2023).
